Measurements: US9119839B2, “Cancer treatment” (Pfizer Inc., priority 2009, dated 2015)

Columns and labels:
[1] = system: previously-untreated, unresectable melanoma; assay: Clinical trial A3671009, randomized multicenter Phase 3 study of tremelimumab versus chemotherapy: overall survival by baseline serum CRP category; format: in vivo, human; conditions: for Median OS: tremelimumab 15 mg/kg i.v. every 90 days (Arm A) or dacarbazine/temozolomide (Arm B); for HR (hazard ratio for survival for the two treatment arms): CTLA4 blockade versus chemotherapy
Protocol: Patients randomized to Arm A received intravenous tremelimumab at a dose of 15 mg/kg every 90 days for up to four doses. Patients randomized to Arm B received either dacarbazine at 1000 mg/m^2 or temozolomide at 200 mg/m^2 at the discretion of the investigator. The primary objective of the trial was to compare overall survival of patients in the two treatment arms. Objective tumor response was a secondary endpoint. In the A3671009 trial, serum CRP was measured in most patients before initiation of treatment. In the analysis described below, baseline CRP refers to the result of a CRP assay performed on serum drawn from patients up to 14 days prior randomization into the study. […] The hazard ratio of 1.48 represents a 48% improvement in overall survival in favor of patients who received CTLA4 blockade.

[2] = system: CRP; conditions: treatment with IL-6 / IL-6 receptor inhibitor; cited from earlier work
[3] = patients with baseline CRP > 1.5 ULN
[4] = patients with baseline CRP ≦ 1.5 ULN

Molecule | Median OS [1, 3] [months] | Median OS [1, 4] [months] | effect on CRP levels [2] | HR (hazard ratio for survival for the two treatment arms) ([1]; baseline CRP > 1.5 ULN, P-value 0.3076) | HR (hazard ratio for survival for the two treatment arms) ([1]; baseline CRP ≦ 1.5 ULN, P-value 0.0037) | improvement in overall survival ([1]; low baseline CRP, in favor of CTLA4 blockade versus chemotherapy) [%] | difference in overall survival between treatment groups ([1]; patients with high baseline CRP, versus chemotherapy (FIG. 2)) | difference in overall survival between treatment groups ([1]; patients with low baseline CRP, versus chemotherapy (FIG. 1))
dacarbazine or temozolomide [Chemotherapy, reference compound] | 6.1 | 12.7 | – | – | – | – | – | –
tocilizumab | – | – | reduce CRP levels | – | – | – | – | –
tremelimumab (antibody, listed as Homo sapiens, anti-CTLA4 monoclonal IgG2 antibody 11.2.1; Arm A of trial A3671009) VH: GVVQPGRSLRLSCAASGFTFSSYGMHWVRQAPGKGLEWVAVIWYDGSNKYYADSVKGRFTISRDNSKNTLYLQMNSLRAEDTAVYYCARDPRGATLYYYYYGMDVWGQGTTVTVSSASTKGPSVFPLAPCSRSTSESTAALGCLVKDYFPEPVTVSWNSGALTSGVH VL: PSSLSASVGDRVTITCRASQSINSYLDWYQQKPGKAPKLLIYAASSLQSGVPSRFSGSGSGTDFTLTISSLQPEDFATYYCQQYYSTPFTFGPGTKVEIKRTVAAPSVFIFPPSDEQLKSGTASVVCLLNNFYPREAKV | 6.1 | 19.1 | – | 0.86 | 1.48 | 48 | no apparent difference | clinically meaningful and statistically significant difference
